Measured values published in patent US20220025023A1 (AC IMMUNE, published 2022).
Where a chain is given by its changes, count along the chain named. Where no end group is shown, it is not given here.

T1: TDP-214 peptide (human)
T1 construct: 8-mer of human TDP-43; same ELISA method as for the biotinylated 15-mers
T1 peptide: YGDVMDVF

T2: TDP-217 peptide (human)
T2 construct: 8-mer of human TDP-43; same ELISA method as for the biotinylated 15-mers
T2 peptide: VMDVFIPK

T3: TDP-222 peptide (human)
T3 construct: 8-mer of human TDP-43; same ELISA method as for the biotinylated 15-mers
T3 peptide: IPKPFRAF

T4: TDP-219 peptide (human)
T4 construct: 8-mer of human TDP-43; same ELISA method as for the biotinylated 15-mers
T4 peptide: DVFIPKPF

T5: TDP-210 peptide (human)
T5 construct: 8-mer of human TDP-43; same ELISA method as for the biotinylated 15-mers
T5 peptide: FFSQYGDV

T6: TDP-221 peptide (human)
T6 construct: 8-mer of human TDP-43; same ELISA method as for the biotinylated 15-mers
T6 peptide: FIPKPFRA

T7: TDP-223 peptide (human)
T7 construct: 8-mer of human TDP-43; same ELISA method as for the biotinylated 15-mers
T7 peptide: PKPFRAFA

T8: TDP-218 peptide (human)
T8 construct: 8-mer of human TDP-43; same ELISA method as for the biotinylated 15-mers
T8 peptide: MDVFIPKP

T9: TDP-211 peptide (human)
T9 construct: 8-mer of human TDP-43; same ELISA method as for the biotinylated 15-mers
T9 peptide: FSQYGDVM

T10: TDP-213 peptide (human)
T10 construct: 8-mer of human TDP-43; same ELISA method as for the biotinylated 15-mers
T10 peptide: QYGDVMDV

T11: TDP-220 peptide (human)
T11 construct: 8-mer of human TDP-43; same ELISA method as for the biotinylated 15-mers
T11 peptide: VFIPKPFR

T12: TDP-224 peptide (human)
T12 construct: 8-mer of human TDP-43; same ELISA method as for the biotinylated 15-mers
T12 peptide: KPFRAFAF

T13: TDP-216 peptide (human)
T13 construct: 8-mer of human TDP-43; same ELISA method as for the biotinylated 15-mers
T13 peptide: DVMDVFIP

T14: TDP-212 peptide (human)
T14 construct: 8-mer of human TDP-43; same ELISA method as for the biotinylated 15-mers
T14 peptide: SQYGDVMD

T15: TP-31 (also: biotinylated, site not given here)
T15 construct: also called TP-31 peptide
T15 peptide: ERSGRFGGNPGGFGN

T16: TP-26 (also: biotinylated, site not given here)
T16 construct: also called TP-26 peptide
T16 peptide: FRAFAFVTFADDQIA

T17: TP-23 (also: biotinylated, site not given here)
T17 construct: also called TP-23 peptide
T17 peptide: TEDMTEDELREFFSQ

T18: TP-29 (also: biotinylated, site not given here)
T18 construct: also called TP-29 peptide
T18 peptide: ISVHISNAEPKHNSN

T19: TP-30 (also: biotinylated, site not given here)
T19 construct: also called TP-30 peptide
T19 peptide: PKHNSNRQLERSGRF

T20: TP-27 (also: biotinylated, site not given here)
T20 construct: also called TP-27 peptide
T20 peptide: ADDQIAQSLCGEDLI

B1: ACI-7062-406E3-Ab1 (antibody, IgG2a, V domains shown)
VH: QVTLKESGPAILQPSQTLSLTCSFSGFSLTTYGIGVGWIRQPSGKGLEWLAHIWWNDNKYYNTALKSRLTVSKDTSNNQVFLKIASVDTADTATYYCARVYGNLYYFAYWGQGTTLTVSS
VL: DVLMTQTPLSLPVSLGDRASISCRSSQSIVHRSGNTYLEWYLQKPGQSPKLLIYKVSNRFSGVPDRFSGSGSGTDFTLKISRVEAEDLGVYYCFQGSHVPTFGAGTKLELKR
notes: also called 406E3D5; clone 5
B2: ACI-7062-406E3-Ab2 (antibody, IgG2a, V domains shown)
VH: B1 VH
VL: B1 VL
notes: also called 406E3G10; clone 6
B3: ACI-7062-416A11-Ab1 (antibody, IgG2a, V domains shown)
VH: B1 VH with A10G, P14S, T30S, V71I, T92A, A108G
VL: B1 VL with R32S, H98R
notes: also called 416A11B3; clone 18
B4: ACI-7062-410H3-Ab1 (antibody, IgG1, V domains shown)
VH: DVQLVESGGGLVQPGGSRRLSCAASGFTFSSFGMHWVRQAPEKGLEWVAYIRSGSDIIYYADSVKGRFTISRDNPENTLFLQMTSLRSEDTAMYYCARSGTTVPFDYWGQGTSLTVSS
VL: DIVMTQSPSSLAMSVGQKVTMSCKSSQSLLNSGNQKNYLAWYQQKPGQSPELLLYFASTRASGVPDRFIGSGSGTDFTLTISSVQAEDLADYFCQQHYSIPLTFGAGTKLELKR
notes: also called 410H3B9; clone 7
B5: ACI-7062-412A7-Ab1 (antibody, IgG2b, V domains shown)
VH: B4 VH
VL: B4 VL
notes: also called 412A7B7; clone 9

Target: T21, recombinant human full-length TDP-43 (human, UniProt Q13148 1-414)
T21 construct: Recombinant full-length protein; also called FL TDP-43; recFL TDP-43
T21 sequence (Q13148 whole entry): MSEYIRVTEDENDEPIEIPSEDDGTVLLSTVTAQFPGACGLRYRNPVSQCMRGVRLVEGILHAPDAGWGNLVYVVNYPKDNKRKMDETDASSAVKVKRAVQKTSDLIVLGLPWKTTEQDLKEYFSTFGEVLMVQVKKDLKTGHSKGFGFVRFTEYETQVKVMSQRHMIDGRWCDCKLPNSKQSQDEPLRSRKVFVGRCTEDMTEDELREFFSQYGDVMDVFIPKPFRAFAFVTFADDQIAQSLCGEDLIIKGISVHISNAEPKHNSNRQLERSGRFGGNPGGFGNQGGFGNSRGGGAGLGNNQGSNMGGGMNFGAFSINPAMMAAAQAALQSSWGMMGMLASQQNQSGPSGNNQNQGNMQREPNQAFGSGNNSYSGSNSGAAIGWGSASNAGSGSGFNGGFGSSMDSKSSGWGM
Test: SPR affinity (Biacore 8K), antibody captured on anti-mouse IgG, TDP-43 monomer as analyte, single cycle kinetics, 1:1 model
Description: Binding affinity to FL TDP-43 was evaluated by determining the dissociation constant (KD) using surface plasmon resonance (SPR; Biacore 8K, GE Healthcare Life Sciences). Anti-mouse IgG was immobilized on a CM5 Series S sensor chip (GE Healthcare Life Sciences) by amine coupling. Immobilization of andi-IgG was done at a concentration of 30 μg/ml in 10 mM sodium acetate (pH 5.5) with a flow rate of 10 μl/min for 500 s. The purified antibodies being tested, and the control antibody (2E2-D3), were injected at a concentration of 1 μg/ml at a flow rate of 10 μl/min for 500 s in 10 mM Na-acetate (pH 5.5). To evaluate KDs, recombinant human FL TDP-43 monomer analyte was injected at […] starting from 400 nM and diluting down to 1.6 nM using single cycle kinetics. The protein analyte was injected at a flow rate of 20 μl/min for 600 s contact time and a 1200 s dissociation phase, without intermediate regeneration steps. Result obtained from kinetics was evaluated using a 1:1 binding model analysis.

Kd [nM] | Binder
193 | B1
101 | B2
307 | B3
242 | B4
66.1 | B5

Target: T1, TDP-214 peptide
Test: indirect ELISA, 8-mer peptide library
Description: (§1) Serum-free supernatants were harvested from stable hybridomas. The supernatants containing antibodies of interest were then screened by an indirect ELISA assay to determine epitopes. Epitopes were mapped using a library of TDP-43 15-mer peptides. Briefly, 96-well streptavidin-coated 96-well ELISA plates were incubated with 5 μg/mL of biotinylated 15-mer peptides spanning the amino acids (aa) 199-285 of human TDP-43 with 9 aa offset and 6 aa overlap. Plates were washed thoroughly with 0.05% Tween-20/PBS and then blocked with 1% bovine serum albumin (BSA) in 0.05% Tween-20/PBS for 1 hour at 37° C. The antibody contained in the hybridoma supernatant was then added at the indicated dilutions, and incubated for 2 hours at 37° C. after which the plates were washed as described previously. An AP-conjugated anti-mouse IgG secondary antibody (Jackson ImmunoResearch Laboratories, United Kingdom) was added at 1/1000 dilution in 0.05% Tween-20/PBS for 1 hour at 37° C. After the final wash, plates were incubated with pNPP (Sigma-Aldrich, Switzerland) an AP substrate solution, and read at 405 nm using an ELISA plate reader (Tecan).
(§2) Furthermore, antibodies were tested using an indirect ELISA on a peptide library of 8-mer peptides with 7 aa overlap covering the sequence of human TDP-43 from aa 210 to aa 231, using the same ELISA method as describe previously in this section.

binding result | Binder
no binding | B1
no binding | B2
no binding | B3
no binding | B4
no binding | B5

Target: T2, TDP-217 peptide
Test: indirect ELISA, 8-mer peptide library
Description: as §1, §2

binding result | Binder
no binding | B1
no binding | B2
no binding | B3
no binding | B4
no binding | B5

Target: T3, TDP-222 peptide
Test: indirect ELISA, 8-mer peptide library
Description: as §1, §2

binding result | Binder
no binding | B1
no binding | B2
no binding | B3
no binding | B4
no binding | B5

Target: T4, TDP-219 peptide
Test: indirect ELISA, 8-mer peptide library
Description: as §1, §2

binding result | Binder
no binding | B1
no binding | B2
no binding | B3
no binding | B4
no binding | B5

Target: T5, TDP-210 peptide
Test: indirect ELISA, 8-mer peptide library
Description: as §1, §2

binding result | Binder
no binding | B1
no binding | B2
no binding | B3
no binding | B4
no binding | B5

Target: T6, TDP-221 peptide
Test: indirect ELISA, 8-mer peptide library
Description: as §1, §2

binding result | Binder
no binding | B1
no binding | B2
no binding | B3
no binding | B4
no binding | B5

Target: T7, TDP-223 peptide
Test: indirect ELISA, 8-mer peptide library
Description: as §1, §2

binding result | Binder
no binding | B1
no binding | B2
no binding | B3
no binding | B4
no binding | B5

Target: T8, TDP-218 peptide
Test: indirect ELISA, 8-mer peptide library
Description: as §1, §2

binding result | Binder
no binding | B1
no binding | B2
no binding | B3
no binding | B4
no binding | B5

Target: T9, TDP-211 peptide
Test: indirect ELISA, 8-mer peptide library
Description: as §1, §2

binding result | Binder
no binding | B1
no binding | B2
no binding | B3
no binding | B4
no binding | B5

Target: T10, TDP-213 peptide
Test: indirect ELISA, 8-mer peptide library
Description: as §1, §2

binding result | Binder
no binding | B1
no binding | B2
no binding | B3
no binding | B4
no binding | B5

Target: T11, TDP-220 peptide
Test: indirect ELISA, 8-mer peptide library
Description: as §1, §2

binding result | Binder
no binding | B1
no binding | B2
no binding | B3
no binding | B4
no binding | B5

Target: T12, TDP-224 peptide
Test: indirect ELISA, 8-mer peptide library
Description: as §1, §2

binding result | Binder
no binding | B1
no binding | B2
no binding | B3
no binding | B4
no binding | B5

Target: T13, TDP-216 peptide
Test: indirect ELISA, 8-mer peptide library
Description: as §1, §2

binding result | Binder
no binding | B1
no binding | B2
no binding | B3

Target: T14, TDP-212 peptide
Test: indirect ELISA, 8-mer peptide library
Description: as §1, §2

binding result | Binder
no binding | B1
no binding | B2
no binding | B3
no binding | B4
no binding | B5

Target: T21, recombinant human full-length TDP-43
Test: Luminex bead assay, antibody serial dilution, FL TDP-43 beads

EC50 [nM] | Binder
< 0.01 | B1
0.01 | B2
0.015 | B3
0.03 | B4
0.03 | B5

Target: T22, BSA (bovine, UniProt P02769)
T22 construct: not specified; also called bovine serum albumin
T22 sequence (P02769 25-607 limits assumed): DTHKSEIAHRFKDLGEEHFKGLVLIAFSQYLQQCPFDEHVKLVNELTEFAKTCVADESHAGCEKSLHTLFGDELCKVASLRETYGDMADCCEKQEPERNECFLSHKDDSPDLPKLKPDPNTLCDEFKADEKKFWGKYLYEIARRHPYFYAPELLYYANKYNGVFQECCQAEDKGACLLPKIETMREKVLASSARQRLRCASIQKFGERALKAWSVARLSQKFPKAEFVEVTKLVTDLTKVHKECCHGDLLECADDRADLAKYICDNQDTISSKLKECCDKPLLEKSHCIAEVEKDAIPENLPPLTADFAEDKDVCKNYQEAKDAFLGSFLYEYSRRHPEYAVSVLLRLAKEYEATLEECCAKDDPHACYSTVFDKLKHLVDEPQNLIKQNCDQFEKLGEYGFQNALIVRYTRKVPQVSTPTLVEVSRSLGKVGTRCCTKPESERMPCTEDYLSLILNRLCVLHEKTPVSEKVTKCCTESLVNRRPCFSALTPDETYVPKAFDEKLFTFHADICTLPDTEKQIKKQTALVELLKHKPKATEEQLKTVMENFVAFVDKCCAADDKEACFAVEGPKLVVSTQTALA
Test: indirect ELISA, control coat in the 15-mer series, hybridoma supernatant

binding result | Binder
no binding | B1
no binding | B2
no binding | B3
no binding | B4
no binding | B5

Target: T15, TP-31
Test: indirect ELISA, biotinylated 15-mer on streptavidin plate, hybridoma supernatant
Description: as §1

binding result | Binder
no binding | B1
no binding | B2
no binding | B3
no binding | B4
no binding | B5

Target: T16, TP-26
Test: as above
Description: as §1

binding result | Binder
no binding | B1
no binding | B2
no binding | B3
no binding | B4
no binding | B5

Target: T17, TP-23
Test: as above
Description: as §1

binding result | Binder
no binding | B1
no binding | B2
no binding | B3
no binding | B4
no binding | B5

Target: T18, TP-29
Test: as above
Description: as §1

binding result | Binder
no binding | B1
no binding | B2
no binding | B3
no binding | B4
no binding | B5

Target: T19, TP-30
Test: as above
Description: as §1

binding result | Binder
no binding | B1
no binding | B2
no binding | B3
no binding | B4
no binding | B5

Target: T20, TP-27
Test: as above
Description: as §1

binding result | Binder
no binding | B1
no binding | B2
no binding | B3
no binding | B4
no binding | B5
